Experimental data reported in patent US20250361544A1, “TYPE III-D CRISPR-CAS SYSTEM AND USES THEREOF” (BOARD OF REGENTS, THE UNIVERSITY OF TEXAS SYSTEM, published 2025).

Assays:
[1] = biological target: T1, Type III-Dv subunits co-expressed without Csx19 (Cas7-Cas5-Cas11, Cas7-2x and Cas7-insertion, with crRNA) (Synechocystis sp. PCC 6803); assay: His-tag affinity purification and SEC of the ΔCsx19 co-expression; SDS-PAGE
T1 construct: These are the subunits left beside His-tagged Cas10 when csx19 carries a nonsense mutation (pPF3089); they are grouped here only as the prey set of the ΔCsx19 pulldown; also called ΔCsx19 complex; ΔCsx19 type Type III-Dv complex

[2] = biological target: T2, Csx19 subunit of the Synechocystis sp. PCC 6803 Type III-Dv complex (Synechocystis sp. PCC 6803); assay: cryo-EM structure of the binary complex, 2.5 Å
T2 construct: Untagged, co-expressed from pPF2434 in E. coli; one copy in the complex
T2 chain: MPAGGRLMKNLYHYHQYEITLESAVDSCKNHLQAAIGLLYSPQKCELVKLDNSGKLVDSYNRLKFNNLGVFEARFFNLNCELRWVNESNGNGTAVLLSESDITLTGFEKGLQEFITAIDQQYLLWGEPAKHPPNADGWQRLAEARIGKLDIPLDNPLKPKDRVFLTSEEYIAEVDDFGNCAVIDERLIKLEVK
Protocol: Fully assembled Type III-D binary complex was diluted to a concentration of 0.3 mg/ml in SEC buffer before 2.5 μl of sample was added to a quantifoil 1.2/1.3 grid that was glow discharged for 1 minute. Sample was applied to the grid in an FEI Vitrobot MarkIV kept at 100% humidity and 4° C. before blotting for 5.5 seconds with a force of 0. For the ssRNA target-bound complex, non-self ssRNA was mixed with the binary complex with a 2:1 molar ratio of RNA:Binary complex in SEC buffer to a final protein concentration of 0.3 mg/mL. Grids of the target-bound complex were frozen identical to that of the binary complex. Both grids were loaded to an FEI Titan Krios (Sauer Structural Biology Lab, University of Texas at Austin) operating at 300 kV. Images were taken at a pixel size of 0.81 Å/pixel with a dose rate of 10.6 e⁻/pixel/s for 5 seconds using a Gatan K3 direct electron detector, giving a final dosage of 80.5 e⁻/Å². Data collection was automated using SerialEM using a defocus range of −1.2 to −2.2 μm.
To delineate the architecture of this Type III-Dv effector, we used cryo-EM to determine a 2.5-Å resolution structure of the complex containing the nt crRNA (FIG. 1e,f, FIG. 8). To gain preliminary insights, we generated initial models of each subunit using Alphafold 2. […]

[3] = biological target: T3, Cas6-2a of Synechocystis sp. PCC 6803 (Synechocystis sp. PCC 6803); assay: metal affinity (His6-Cas10) and size-exclusion co-purification from E. coli; SDS-PAGE and mass spectrometry
T3 construct: The Results say cas6-2a was cloned and expressed with the operon
T3 chain: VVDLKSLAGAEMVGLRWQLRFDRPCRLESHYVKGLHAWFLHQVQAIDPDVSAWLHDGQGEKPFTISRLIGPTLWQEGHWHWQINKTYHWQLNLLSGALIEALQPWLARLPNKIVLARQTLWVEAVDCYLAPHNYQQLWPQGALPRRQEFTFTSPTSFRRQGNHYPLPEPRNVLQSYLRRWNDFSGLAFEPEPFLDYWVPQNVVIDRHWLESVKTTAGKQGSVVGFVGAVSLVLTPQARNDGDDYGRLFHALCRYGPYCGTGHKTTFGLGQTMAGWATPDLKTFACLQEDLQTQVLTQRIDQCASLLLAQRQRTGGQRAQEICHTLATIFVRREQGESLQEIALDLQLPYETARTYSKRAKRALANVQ
Protocol: The sample was applied to a second HisTrap column; however, due to inefficient TEV cleavage, the complex unexpectedly bound the column and eluted with high imidazole. The complex was further purified by size exclusion chromatography (SEC) on a HiLoad 16/600 Superdex 200 column (GE Healthcare) equilibrated in SEC Buffer). Mutant Type III-Dv complexes were similarly expressed and purified, except TEV protease was omitted. Purified complexes were typically concentrated to 1.5 mg/ml using a centrifugal concentrator (Amicon; 100 kDa MWCO), aliquoted, and stored at −80° C.
Denaturing liquid chromatography mass spectrometry (LC-MS) was performed on a Dionex UltiMate 3000 nanoLC system coupled to a Thermo Orbitrap Fusion Lumos Tribrid mass spectrometer (San Jose, Ca). The trap column (3 cm) and analytical column (30 cm) were packed in-house with polymer reverse-phase (PLRP) packing material. Approximately 80 ng of the CRISPR complex were injected and subjected to reverse-phase chromatography, utilizing water with 0.1% formic acid as mobile phase A (MPA), and acetonitrile with 0.1% formic acid as mobile phase B (MPB). Forward trapping occurred for 5 minutes at 2% MPB at a flow rate of 5 μL/min at the trap column. Elution onto the analytical column (at 0.3 μL/min) occurred by increasing MPB to 10% over a 3-minute gradient followed by an increase to 35% MPB over 32 minutes. […]

T1 sequence (chain, as listed by the source limits assumed, chain 1 of 3): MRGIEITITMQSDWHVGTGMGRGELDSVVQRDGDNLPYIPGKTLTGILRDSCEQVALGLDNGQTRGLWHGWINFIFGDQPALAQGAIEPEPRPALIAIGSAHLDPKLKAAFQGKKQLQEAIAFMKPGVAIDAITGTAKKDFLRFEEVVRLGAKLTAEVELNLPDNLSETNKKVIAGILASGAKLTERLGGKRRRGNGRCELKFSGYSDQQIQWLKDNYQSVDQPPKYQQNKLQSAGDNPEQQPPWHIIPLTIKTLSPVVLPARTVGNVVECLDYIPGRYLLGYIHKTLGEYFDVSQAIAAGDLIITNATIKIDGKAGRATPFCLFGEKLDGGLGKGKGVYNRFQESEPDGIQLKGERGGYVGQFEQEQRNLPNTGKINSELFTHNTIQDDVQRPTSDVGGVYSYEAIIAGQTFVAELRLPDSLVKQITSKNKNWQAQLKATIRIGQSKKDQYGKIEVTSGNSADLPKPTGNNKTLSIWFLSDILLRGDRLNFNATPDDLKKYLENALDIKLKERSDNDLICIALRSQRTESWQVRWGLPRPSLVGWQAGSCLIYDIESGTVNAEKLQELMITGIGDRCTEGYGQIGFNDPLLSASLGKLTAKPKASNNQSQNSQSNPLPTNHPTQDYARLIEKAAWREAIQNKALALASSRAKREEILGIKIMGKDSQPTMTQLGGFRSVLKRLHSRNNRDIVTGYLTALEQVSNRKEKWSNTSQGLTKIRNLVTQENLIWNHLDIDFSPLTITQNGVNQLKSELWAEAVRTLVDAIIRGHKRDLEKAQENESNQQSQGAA
T1 sequence (chain, as listed by the source limits assumed, chain 2 of 3): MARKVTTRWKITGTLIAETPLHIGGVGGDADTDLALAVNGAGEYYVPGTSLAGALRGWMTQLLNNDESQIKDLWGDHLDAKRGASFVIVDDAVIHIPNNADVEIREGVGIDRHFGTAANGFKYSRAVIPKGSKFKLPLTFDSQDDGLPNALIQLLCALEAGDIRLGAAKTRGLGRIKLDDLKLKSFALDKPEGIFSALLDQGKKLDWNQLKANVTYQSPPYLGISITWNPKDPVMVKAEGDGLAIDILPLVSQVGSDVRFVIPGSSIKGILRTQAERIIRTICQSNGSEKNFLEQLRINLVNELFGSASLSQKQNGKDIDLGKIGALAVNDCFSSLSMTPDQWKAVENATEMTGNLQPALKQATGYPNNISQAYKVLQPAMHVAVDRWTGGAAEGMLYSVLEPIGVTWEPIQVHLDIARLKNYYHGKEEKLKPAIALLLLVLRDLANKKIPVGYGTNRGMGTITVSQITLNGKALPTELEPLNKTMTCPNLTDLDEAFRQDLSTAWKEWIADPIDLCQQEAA
T1 sequence (chain, as listed by the source limits assumed, chain 3 of 3): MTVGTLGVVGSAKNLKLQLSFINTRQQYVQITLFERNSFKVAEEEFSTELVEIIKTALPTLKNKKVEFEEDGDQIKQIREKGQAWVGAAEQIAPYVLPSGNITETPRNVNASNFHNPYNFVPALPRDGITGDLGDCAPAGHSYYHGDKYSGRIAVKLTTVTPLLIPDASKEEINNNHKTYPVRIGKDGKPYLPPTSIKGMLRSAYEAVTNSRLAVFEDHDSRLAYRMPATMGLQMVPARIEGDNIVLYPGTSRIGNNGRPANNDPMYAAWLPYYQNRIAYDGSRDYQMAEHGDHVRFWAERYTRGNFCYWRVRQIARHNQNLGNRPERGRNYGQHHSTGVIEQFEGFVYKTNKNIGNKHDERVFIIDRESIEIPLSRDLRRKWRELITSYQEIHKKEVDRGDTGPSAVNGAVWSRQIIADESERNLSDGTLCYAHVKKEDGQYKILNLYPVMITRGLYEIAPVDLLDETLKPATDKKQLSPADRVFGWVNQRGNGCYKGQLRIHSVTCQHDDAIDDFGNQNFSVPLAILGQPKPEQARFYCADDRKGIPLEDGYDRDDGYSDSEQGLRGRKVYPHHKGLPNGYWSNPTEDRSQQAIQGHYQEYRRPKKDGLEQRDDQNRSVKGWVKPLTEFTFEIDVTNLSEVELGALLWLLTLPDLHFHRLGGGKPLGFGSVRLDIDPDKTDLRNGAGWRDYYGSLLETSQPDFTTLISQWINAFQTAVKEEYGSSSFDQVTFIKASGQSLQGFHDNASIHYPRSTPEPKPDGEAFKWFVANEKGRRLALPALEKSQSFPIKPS

binding result [1]: no binding
binding result [2]: binds
binding result [3]: no binding
B1: Cas10 subunit of the Synechocystis sp. PCC 6803 Type III-Dv CRISPR-Cas complex, with N-terminal His6 tag and TEV site (other)
chain: MFLVLIETSGNQHFIFSTNKLRENIGASELTYLATTEILFQGVDRVFQTNYYDQWSDTNSLNFLADSKLNPAIDDPKNNADIEILLATSGKAIALVKEEGKAKQLIKEVTKQALINAPGLEIGGIYVNCNWQDKLGVAKAVKEAHKQFEVNRAKRAGANGRFLRLPIAAGCSVSELPASDFDYNADGDKIPVSTVSKVKRETAKSAKKRLRSVDGRLVNDLAQLEKSFDELDWLAVVHADGNGLGQILLSLEKYIGEQTNRNYIDKYRRLSLALDNCTINAFKMAIAVFKEDSKKIDLPIVPLILGGDDLTVICRGDYALEFTREFLEAFEGQTETHDDIKVIAQKAFGVDRLSACAGISIIKPHFPFSVAYTLAERLIKSAKEVKQKVTVTNSSPITPFPCSAIDFHILYDSSGIDFDRIREKLRPEDNTELYNRPYVVTAAENLSQAQGYEWSQAHSLQTLADRVSYLRSEDGEGKSALPSSQSHALRTALYLEKNEADAQYSLISQRYKILKNFAEDGENKSLFHLENGKYVTRFLDALDAKDFFANANHKNQGE
notes: Whole gene amplified from Synechocystis genomic DNA and co-expressed in E. coli from pPF2434; The complex also holds a 37-nt crRNA; also called His6-TEV-Cas10; N-His6-tagged Cas10; not shown: TEV cleavage was inefficient, so
